Data: publication doi:10.1101/2024.06.12.598358 (bioRxiv, 2024)
Like-named read-outs stand apart in the source and are kept apart here. Side chains are listed from the residue outwards. Ends that are not written are not given here. maleimide = maleimide function on the C-terminal Lys

How the values were obtained:
[1] = target: 7xHis-SUMO-MtbClpC1 (M. tuberculosis) (UniProt P9WPC9); experiment: MST
[2] = target: 7xHis-SUMO-MtbClpC1 (M. tuberculosis) (UniProt P9WPC9); experiment: MST; remark: listed apart in the source
[3] = target: Leu-LFVQLASK peptide conjugated to CSGSK^TAMRA; experiment: fluorescence polarisation
[4] = target: Phe-LFVQLASK peptide conjugated to CSGSK^TAMRA; experiment: fluorescence polarisation
[5] = target: Trp-LFVQLASK peptide conjugated to CSGSK^TAMRA; experiment: fluorescence polarisation
[6] = target: Tyr-LFVQLASK peptide conjugated to CSGSK^TAMRA; experiment: fluorescence polarisation
E. coli ClpS = target: T1, E. coli ClpS (E. coli, UniProt P0A8Q6 1-106); experiment: fluorescence polarisation
T1 sequence: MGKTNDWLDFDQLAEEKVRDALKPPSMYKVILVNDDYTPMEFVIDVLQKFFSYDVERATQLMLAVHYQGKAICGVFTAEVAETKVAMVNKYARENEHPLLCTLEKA

Chain of 7xHis-SUMO-MtbClpC1 (M. tuberculosis) (P9WPC9 whole entry): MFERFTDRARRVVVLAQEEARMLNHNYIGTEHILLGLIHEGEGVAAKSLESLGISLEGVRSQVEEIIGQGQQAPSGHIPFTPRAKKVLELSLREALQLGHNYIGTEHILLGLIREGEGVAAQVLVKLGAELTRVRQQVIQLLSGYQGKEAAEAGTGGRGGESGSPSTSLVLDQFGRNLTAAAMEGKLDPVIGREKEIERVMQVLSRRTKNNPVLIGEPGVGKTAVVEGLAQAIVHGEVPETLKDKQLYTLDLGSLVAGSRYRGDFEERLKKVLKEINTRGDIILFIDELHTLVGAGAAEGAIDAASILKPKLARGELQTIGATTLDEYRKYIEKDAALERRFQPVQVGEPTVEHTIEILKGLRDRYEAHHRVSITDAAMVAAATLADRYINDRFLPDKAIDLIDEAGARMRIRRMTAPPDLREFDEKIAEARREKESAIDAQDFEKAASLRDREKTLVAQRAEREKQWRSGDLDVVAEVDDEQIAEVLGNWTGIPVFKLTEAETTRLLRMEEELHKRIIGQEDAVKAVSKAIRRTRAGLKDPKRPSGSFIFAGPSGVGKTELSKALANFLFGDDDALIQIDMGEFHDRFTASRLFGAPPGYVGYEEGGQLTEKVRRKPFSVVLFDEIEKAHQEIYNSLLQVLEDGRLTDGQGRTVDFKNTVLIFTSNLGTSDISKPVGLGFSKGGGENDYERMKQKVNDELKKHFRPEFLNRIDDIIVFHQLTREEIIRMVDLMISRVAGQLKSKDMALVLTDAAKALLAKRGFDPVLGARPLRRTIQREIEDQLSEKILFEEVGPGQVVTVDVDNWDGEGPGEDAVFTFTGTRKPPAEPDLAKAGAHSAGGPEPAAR

M. smegmatis ClpS (natural protein)
Kd [1]: 100 µM | Kd [2]: 3.5 µM | Kd [3]: 42 µM | Kd [4]: 6.5 µM | Kd [5]: 11 µM | Kd [6]: 8.8 µM

FLFVQLASK([maleimide-CSGSK(TAMRA)]) (not fully specified) [Phe-LFVQLASK peptide conjugated to CSGSK^TAMRA]
binding result (E. coli ClpS): binds

LLFVQLASK([maleimide-CSGSK(TAMRA)]) (not fully specified) [Leu-LFVQLASK peptide conjugated to CSGSK^TAMRA]
binding result (E. coli ClpS): binds

YLFVQLASK([maleimide-CSGSK(TAMRA)]) (not fully specified) [Tyr-LFVQLASK peptide conjugated to CSGSK^TAMRA]
binding result (E. coli ClpS): binds

WLFVQLASK([maleimide-CSGSK(TAMRA)]) (not fully specified) [Trp-LFVQLASK peptide conjugated to CSGSK^TAMRA]
binding result (E. coli ClpS): binds
